# Experimental data published in the DeepSol protein solubility set.
# Assay: soluble on expression in E. coli; label from the status in PepcDB or PDB records
row,Sequence,soluble on expression in E. coli
1,MAHHHHHHMSSKGAAMTPNGNGATHESRPGKKGRPPRRRADREAAGAHFDCGSSQTTEKGGDEYQYKHPKPRVLTSSLFMWEHVAVFSMPAQVAELERVSRDVARLLEDSNTGTHPMQRYWNAQWSRMVWREEELPDEKKYLAPTMLTRSDGKRKWKNVFVQEYPLYLKRVYQGKGVCNNAVNAAKVLFNRQVLNAAKTAAELERMELTVEEARVKEQKKRGVDVEFEETPDTAPSPPWLGCHHGSYPEKGERERHEKGRPRAVKKASHETYTRSDYKEDYRTGDRKGKHKKGGTGRWSKFDDFGDYDY,not soluble
2,SRRSLRAGKRRQTAGRKSKSPPKVPIVIQDDSLPAGPPPQIRILKRPTSNGVVSSPNSTSRPTLPVKSLAQREAEYAEARKRILGSASPEEEQEKPILDRPTRISQPEDSRQPNNVIRQPLGPDGSQGFKQRR,soluble
3,MKTEEELLNRMQAYCARTEHCRSEVAAKLRQAGTDELMIERLLQRLVEDRFIDEDRFARAYARDKYRFNGWGPKRIALELVKRHIPDSIIGSTLLDLEEGEDKIEDNLPRLLERKLRSIKDTDDRGRLHRLVRWAVGRGFEYEQVMREASRLLRKGYEEDS,not soluble
4,MFVYYIYTIIKSQSKSTPHHYHPCWSNSAAGLKKWGGFMNIKNNRRRRASRDAIENIFIELLQTKSLNEITVSDICKKAGLNRSTFYANYMDIYQLADTIRETLEDNLNDLYRSEIAGGYNSNDYLPLFRHIKENQPFYNTYFKLGYDNQYKIFKYDTALARDHFGNRFIDYHCEFFKSGITAIIKHWLSNGCLETPEEINGILMSEYRGRKMEET,not soluble
5,MTETDFKLKYWGNQEQDYILPTVGLGREYLVLGKLLISLSKWRAKGLIDFDVYLRPTGVGTLTNTINYEYYKGLEDKYDLTLYIRAKDSYYPLLWIDITGSSWTEEQSKERYGESIYAILSVKVETAKKYDVLGRVFFIHYNDTEDKLKCISALQILNLERQNKIKKDKFERGAKSEYYLIPTSYWKNLTELRIALRGFYQSFKEYLARSNK,soluble
6,MGSDKIHHHHHHMDMLLKKILGTFGVSGREKEISEVIKEELNKYPCEVREDKLGNIIVKLGSGREKIMLSTNMDKKGVITYHIEEDGKVRIDAIGDIKADDIIGKTVVFRSGIEGKIESEKKENNEFRDIYVNVNMGKREAVLKYISEGEAAEFGGNTFADKENVVGPYLSNRAGCYAFLKVIKEIKSIDKEVYFVFSTQGNLNGRGARAAAFEIEPDMCISVNTEKEGEVKLSEGPILVLMEKGLITNYHVKEQIISSAEKAQIKLQRCVSSESSDGSVVHKEVGGIKTGTIALPCKNKNETNETISLNDVDDLVKLLQYIVKK,not soluble
7,KELWKLRKLRNHFSIQEEAELLVHSDSVGKGKVFCEKVAEESGVLAENPGFDRWQNSINPAHSDAEILDMYDSMVVSQQDKLATKVVSQHATES,not soluble
8,MVFGPGLCIAHRGTIVVNKGARVGENCRIHACTNIGSGRDNIFLAPKIGNGVYIGPGAKIFGSVEIADNIAIGANSVVNRSFYERGISIAGVPAKKISNKGSDGMVIAATKTVSVPVSQETILEHHHHHH,not soluble
9,MGSDKIHHHHHHMNILITGASGFIGRQLVERLAPHHQLTLLTRSVQQTQRILGNQHHYLESLDALSDLNHIDAIVNLAGEPIVAKRWSKNQKQRICDSRWDITARLTQLIQQSSNPPEIMVSGSAVGYYGRHDDKLLDESSGAHVEFSHDICRKWEQEALNANTEHTRVCIIRIGIVLGKGGALEKMLPPFKLGLGGPIGHGRQGMSWIHVQDLISLIDFLLSQEHCKGVFNATAPNPVSNAVFTKALGKALNRPALITTPPLALRLAMGEMSELLTEGQFVYPKRALEAGFQFQFSDLDNALTDVLAK,not soluble
10,MSLYTVLVADDKEVFRRKVKRMPYFQDHKEKFAIRYEAQNGLEALEILRSHDVDMVLTDIRMPFIDGIELLKHVNAENLCKCVILLSEFAEFNYAKAGILNGAFDYVLKPVDDEKIQETFDRAYNYLTTINAAVNAQTQRIETLARLMLAGDRMNALAYAKHIGAGLQAHGAITGERIVQANDTLAQLNKYILQKRPFLHYYLPFDELCCLDAKKTTPGKISDAFNACVSTVMDAIEPFCVQSTNELVGRTCQLVLEKLDSKVSLHGIADNLYVNPKYLGALFKKETGRSFVDYVTFARMERAKMLLRNPTLKVYEVAAQLGYDDVDYFSKVFKKLTAESPSIYREMRKEGHHHHHH,soluble
11,MKKITLLSGILFLIGYSDAEVFESQNVRVKRNDFTNNYGYGPFGIGPTNGGFDSYGFYRDKFYNSGLPPLYSFASYRNYYHEISFHKNKYGQPAPTDFETLQQERYGPYYDGVWGYADHSKNWFGKR,not soluble
12,MSAEVLVYRGSLVENRHRVSLALWGPEGLVAYAGDPGRVAYLRSSAKPFQALALYLTGAVERFGLTEEEVALATASHDGTPRHVEVAARFLGKLGLGPEHLVCGVHPPFSREARAALEAQGLAPTPLHHNCSGKHAGMLAAALALGAPAEGYHLPDHPVQRLNLATLEALSGARPGLATDGCSVPTFALSLARAARAFFLLADPGRAPEAYRTPLLRVREAMRRHPDLVAGPGSVDTLLMERLPVVAKRGADGYYGLALLEGPRGPLGVALKVEDGATLAREVAVVALLRALGLDPGKTPWDRPPVRNHRGLEVGHLEARLGLVWV,soluble
13,MILIFEEHRMQLSSEQCDFFFTNGYLVINNFFSESVCDLLKQRIETLLENNQAEIPKTIFSTQTNEHAKKQYFLDSGDKIHYFFEPGAFDEAGDWLRPFNQSINKIGHALHELDPVFRQYSRDDRIKKIAHQLGLKTLGLVQSMYIFKQPGIGAEVLCHQDSTYIFGEDSDALGFWFAIEDATLENGCLEVIPSPCTTPLKQRMFRRENEIYFENFDSSPWPEENSVPLPVKKGALIILHGRVPHKSQANFSNQSRHAYTLHLVDISLPYPEKNWLQWPNGIPCLLEHHHHHH,soluble
14,MSALRHIAVIDIGKTNAKVALVDLATSSEVALRRMANAPVRQAPYPHHDVESLWTFILDSLAGLNCEQRIDAISITTHGATGALVDASGELVLPVLDYEFDGPNGLAADYDAIRPPFAETGTPRLPLGLNLGAQFFWQQKRFPAAFAHATAILMYPQYWALRLTGVAANEVTSLGCHTDLWNPWTAGFSSLVDRLDWRGLMAPVRPARNRLGPILPALAARTGLDARTPVFCGLHDSNASLLPHLLSDAPPFSVVSTGTWVVSMAVGGREIALDAARDTLVNVNALGDPLPSARFMGGREFSVLTEGQPETWSEDDIGAVLARKTLLLPSTQQGSGPFPHQAATWLDAESINDGQRFAAVSFYLALMTATCLDLIGADGPTTVEGPFARNQLFVGMLAASTGRAVVASEATTGTSIGAALLASDQVMAYGKGERIEPPTDRAWADYANAWRVAVEARGLEHHHHHH,not soluble
15,MAKPSDSADICQAPVQTAQAPLPKDSALDDLIGYAMRRAQLKLFQNLIGRLSAHDLRPAQFSALAIIEQTPGLMQADLAKALAIEPPQVVPLLNKLEERALAVRVRCKPDKRSYGIFLSKTGETLLRELKQIAVDSDLDSTSALDNQERNDLLRLLKKVYQS,not soluble
16,MKLRLSALALGTTLLVGCASSGTDQQGRSDPLEGFNRTMYNFNFNVLDPYIVRPVAVAWRDYVPQPARNGLSNFTGNLEEPAVMVNYFLQGDPYQGMVHFTRFFLNTILGMGGFIDVAGMANPKLQRTEPHRFGSTLGHYGVGYGPYVQLPFYGSFTLRDDGGDMADGLYPVLSWLTWPMSVGKWTLEGIETRAQLLDSDGLLRQSSDPYIMVREAYFQRHDFIANGGELKPQENPNAQAIQDDLKDIDSE,not soluble
17,MGSDKIHHHHHHMKDIANTPLVSIICSTYNHGLYISQCLDGFLMQKTNFPFEILIHDDASTDNTPDIIREYEHNHPQVIRPIYQKENKYSKKEDIFAKYQCSRVRGKYIAICEGDDYWIDPLKLQKQIDFLENNPDYGMIYTTSKVYNQKKGKIEEDIIGRKFNGYIELLSGNCIPTLTSCIRSALVMEYLKEVEPKSKNWLMGDYPMWLWISYYHKIKFLPESTTVYRVLEESASHSNDIQKYERFILSTIDITAFYIHKFNTPLTEPYLRSLSCFYYDLYDKYMCLGMYKKARHYSKLINPSYVSARMRRRVRRFHLRFIQIRLAKWFDIKGKERK,not soluble
18,YFQSMEAEDFECSSHCSELSWRQNEQRRQGLFCDITLCFGGAGGREFRAHRSVLAAATEYFTPLLSGQFSESRSGRVEMRKWSSEPGPEPDTVEAVIEYMYTGRIRVSTGSVHEVLELADRFLLIRLKEFCGEFLKKKLHLSNCVAIHSLAHMYTLSQLALKAADMIRRNFHKVIQDEEFYTLPFHLIRDWLSDLEITVDSEEVLFETVLKWVQRNAEERERYFEELFKLLRLSQMKPTYLTRHVKPERLVANNEVCVKLVADAVERHALRAENIQSGT,soluble
19,MGGKKFQAMPQLPSTVLDRVFEQARQQPEAIALRRCDGTSALRYRELVAEVGGLAADLRAQSVSRGSRVLVISDNGPETYLSVLACAKLGAIAVMADGNLPIAAIERFCQITDPAAALVAPGSKMASSAVPEALHSIPVIAVDIAAVTRESEHSLDAASLAGNADQGSEDPLAMIFTSGTTGEPKAVLLANRTFFAVPDILQKEGLNWVTWVVGETTYSPLPATHIGGLWWILTCLMHGGLCVTGGENTTSLLEILTTNAVATTCLVPTLLSKLVSELKSANATVPSLRLVGYGGSRAIAADVRFIEATGVRTAQVYGLSETGCTALCLPTDDGSIVKIEAGAVGRPYPGVDVYLAATDGIGPTAPGAGPSASFGTLWIKSPANMLGYWNNPERTAEVLIDGWVNTGDLLERREDGFFYIKGRSSEMIICGGVNIAPDEVDRIAEGVSGVREAACYEIPDEEFGALVGLAVVASAELDESAARALKHTIAARFRRESEPMARPSTIVIVTDIPRTQSGKVMRASLAAAATADKARVVVRG,soluble
20,MSETPEYGVLSWWDYGNWIVYVGKRPAVSNNFQTGVEDSANFLLTDSEEEAKTIVEKLKVKYVMTDTLMAEGKFSSITSLAGKEIGEYYEVETVKGDTGLRTVATPKQALLQTQVYKLHKLDGTSLGHFRLVHESAVNSTDDGNSKENTVKVFEYVKGATLSGTLEHHHHHH,not soluble
21,MGSDKIHHHHHHMIIDLSQLPEPEVIENLDFETIYQELLGDFREAMAGEWTAEVESDPVLKLLQLAAYRELLLRARINDAARAVMLAYASGADLDQIGAGFNVQRLLIRPAQPEAVPPVEAQYESDKSLRNRIQLAFEQLSVAGPRNAYIAHALGADGRVADASATSPAPCEVLISVLGVEGNGQAPEAVLQAVRLALNAEDVRPVADRVTVRSAGIVPYQVKAQLYLFPGPEAELIRAAAEASLRDYISAQRRLGRDIRRSALFATLHVEGVQRVELQEPAADVVLDETQAAYCTGYAITLGGVDE,not soluble
22,MSWKIIEKYRRILAQEEGNSPKRRGGKLTVCLVYPNRYGVAMSNLGFQAVHALLNAESDILCERAFLPDPDDLREYRRSGARLLSLESQEPLSSFDIIAFSVSFESDYLNIPVIFDLAGIPALAAERTGSHPLVMGGGAALFLNPEPVADFLDLIVVGEGEAILPTFLDHIRADGIGDRAMFLAGVAGLPGIYVPSLYATEYDGARLVSREAKDGAPEQVKRIWMAEPDGRATVSEILTPGTEFSDMYLVEVSRGCGRGCRFCAAGFIYHPYRQRSLDAVKAAVAEGLSHRRKIGLVGAAVSDFREIGELCRHILAEGGTVSVSSLRIDRLDEGMIEVLKASGHKTVALAPEGGSQRIRDLINKNLTEEQILAACDLLIGHDILNLKLYFIIGLPTETMDDLEEMALLVEKIRKRVIAAARKNKRLGEIILSVNPFVPKPFTPFQWCGMEDTPSLEKKLKYLQQTVGRLSNVRLIAESPKDAWLQALLSRGDRRLSGFLLRAAELGNWKRAAREFPVDTDFLVHRTIPLDEMLPWDVIASADAERLRREYLKATPPRLEHHHHHH,not soluble
